Here are results for nine molecules from US20260201008A1, “SECRETIN-DERIVED GLP1R SELECTIVE AGONISTS” (GUBRA A/S, priority 2023, published 2026).

Where two headings read alike, the source gives them in different places. Numbered stars: 1 amine (or outer) side, 2 acyl side, 3 side chain; on linkers, the order of the positions; unused ones are H or OH. Square brackets hold non-standard residues; d marks the D form. Side chains are listed from the residue outwards. Ends that are not written are not given here. * marks the point of attachment. C20 diacid = O=C(O)CCCCCCCCCCCCCCCCCCC(=O)*; γGlu = O=C(O)[C@H](CCC(=O)[*:2])N[*:1]; AEEA = NCCOCCOCC(=O)O; Aib = CC(C)(N)C(=O)O

What all share (test): cell-based or functional assay
In experiment [1] the target is T1, human GLP-1 receptor (hGLP1R) (human, UniProt P43220 24-463).
For experiment [2], the target named is T2, human secretin receptor (hSCTR) (human, UniProt P47872 23-440).
T2 sequence (P47872 23-440): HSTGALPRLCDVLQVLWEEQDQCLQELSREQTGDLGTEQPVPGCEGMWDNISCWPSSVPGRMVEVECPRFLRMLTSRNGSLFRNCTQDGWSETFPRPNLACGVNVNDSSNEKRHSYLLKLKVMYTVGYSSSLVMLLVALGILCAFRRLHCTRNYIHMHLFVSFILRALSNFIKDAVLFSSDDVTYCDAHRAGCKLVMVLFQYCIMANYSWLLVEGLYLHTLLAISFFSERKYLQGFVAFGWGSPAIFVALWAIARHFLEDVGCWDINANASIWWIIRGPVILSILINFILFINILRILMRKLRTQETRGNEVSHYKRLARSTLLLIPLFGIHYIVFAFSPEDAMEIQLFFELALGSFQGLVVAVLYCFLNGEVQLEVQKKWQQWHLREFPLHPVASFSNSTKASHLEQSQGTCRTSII
The target of experiment [3] is T1, human GLP-1 receptor (hGLP1R). The source holds these as a separate data set.
The target in experiment [4] is T2, human secretin receptor (hSCTR). This is another data set of the same source.
Experiment [5] has as its target T1, human GLP-1 receptor (hGLP1R). This is another data set of the same source.
In experiment [6] the target is T2, human secretin receptor (hSCTR). This is another data set of the same source.

B1: SEQ ID NO: 225 (peptide)
peptide: H[Aib]EGTFTSDLSFLLEGAALQRFIQWLV-NH2
modifications: N-terminus assumed
SMILES: CC[C@H](C)[C@H](NC(=O)[C@H](Cc1ccccc1)NC(=O)[C@H](CCCNC(=N)N)NC(=O)[C@H](CCC(N)=O)NC(=O)[C@H](CC(C)C)NC(=O)[C@H](C)NC(=O)[C@H](C)NC(=O)CNC(=O)[C@H](CCC(=O)O)NC(=O)[C@H](CC(C)C)NC(=O)[C@H](CC(C)C)NC(=O)[C@H](Cc1ccccc1)NC(=O)[C@H](CO)NC(=O)[C@H](CC(C)C)NC(=O)[C@H](CC(=O)O)NC(=O)[C@H](CO)NC(=O)[C@@H](NC(=O)[C@H](Cc1ccccc1)NC(=O)[C@@H](NC(=O)CNC(=O)[C@H](CCC(=O)O)NC(=O)C(C)(C)NC(=O)[C@@H](N)Cc1c[nH]cn1)[C@@H](C)O)[C@@H](C)O)C(=O)N[C@@H](CCC(N)=O)C(=O)N[C@@H](Cc1c[nH]c2ccccc12)C(=O)N[C@@H](CC(C)C)C(=O)N[C@H](C(N)=O)C(C)C
For B1, in experiment [1], the “pEC50 hGLPR1” value was 10.6 -log M. Moreover, the “pEC50 hSCTR” value in experiment [2] is 8.1 -log M.
As for H[Aib]EGTFTSDVSRLLEEA[Aib]LQRFLEK([AEEA-AEEA-γGlu-C20 diacid])LVEAA-NH2 [SEQ ID NO: 212], the “PEC50 hGLPR1” value in experiment [3] is 10.7 -log M. Also, in experiment [4], the “pEC50 hSCTR” value was 7.2 -log M. Also, in experiment [5], the “hGLPR1 EC50 nM (purified peptide)” value was found to be 0.021 nM and the “hGLPR1 PEC50 (purified peptide)” value is 10.7 -log M. For the same molecule, in experiment [6], the “hSCTR EC50 nM (purified peptide)” value worked out at 60 nM and the “hSCTR pEC50 (purified peptide)” value was 7.2 -log M.

B2: SEQ ID NO: 226 (peptide)
peptide: H[Aib]EGTFTSDLSGLLEGAALQRFIQWLV-NH2
modifications: N-terminus assumed
SMILES: CC[C@H](C)[C@H](NC(=O)[C@H](Cc1ccccc1)NC(=O)[C@H](CCCNC(=N)N)NC(=O)[C@H](CCC(N)=O)NC(=O)[C@H](CC(C)C)NC(=O)[C@H](C)NC(=O)[C@H](C)NC(=O)CNC(=O)[C@H](CCC(=O)O)NC(=O)[C@H](CC(C)C)NC(=O)[C@H](CC(C)C)NC(=O)CNC(=O)[C@H](CO)NC(=O)[C@H](CC(C)C)NC(=O)[C@H](CC(=O)O)NC(=O)[C@H](CO)NC(=O)[C@@H](NC(=O)[C@H](Cc1ccccc1)NC(=O)[C@@H](NC(=O)CNC(=O)[C@H](CCC(=O)O)NC(=O)C(C)(C)NC(=O)[C@@H](N)Cc1c[nH]cn1)[C@@H](C)O)[C@@H](C)O)C(=O)N[C@@H](CCC(N)=O)C(=O)N[C@@H](Cc1c[nH]c2ccccc12)C(=O)N[C@@H](CC(C)C)C(=O)N[C@H](C(N)=O)C(C)C
B2: the “pEC50 hGLPR1” value in experiment [1] is 10.5 -log M. Besides, the “pEC50 hSCTR” value in experiment [2] is 8.3 -log M.

B3: SEQ ID NO: 224 (peptide)
peptide: H[Aib]EGTFTSDLSELLEGAALQRFIQWLV-NH2
modifications: N-terminus assumed
SMILES: CC[C@H](C)[C@H](NC(=O)[C@H](Cc1ccccc1)NC(=O)[C@H](CCCNC(=N)N)NC(=O)[C@H](CCC(N)=O)NC(=O)[C@H](CC(C)C)NC(=O)[C@H](C)NC(=O)[C@H](C)NC(=O)CNC(=O)[C@H](CCC(=O)O)NC(=O)[C@H](CC(C)C)NC(=O)[C@H](CC(C)C)NC(=O)[C@H](CCC(=O)O)NC(=O)[C@H](CO)NC(=O)[C@H](CC(C)C)NC(=O)[C@H](CC(=O)O)NC(=O)[C@H](CO)NC(=O)[C@@H](NC(=O)[C@H](Cc1ccccc1)NC(=O)[C@@H](NC(=O)CNC(=O)[C@H](CCC(=O)O)NC(=O)C(C)(C)NC(=O)[C@@H](N)Cc1c[nH]cn1)[C@@H](C)O)[C@@H](C)O)C(=O)N[C@@H](CCC(N)=O)C(=O)N[C@@H](Cc1c[nH]c2ccccc12)C(=O)N[C@@H](CC(C)C)C(=O)N[C@H](C(N)=O)C(C)C
Consider B3, for which the “pEC50 hGLPR1” value in experiment [1] was 10.9 -log M. The “pEC50 hSCTR” value in experiment [2] is 8.8 -log M.

B4: SEQ ID NO: 223 (peptide)
peptide: H[Aib]EGTFTSDLS[Aib]LLEGAALQRFIQWLV-NH2
modifications: N-terminus assumed
SMILES: CC[C@H](C)[C@H](NC(=O)[C@H](Cc1ccccc1)NC(=O)[C@H](CCCNC(=N)N)NC(=O)[C@H](CCC(N)=O)NC(=O)[C@H](CC(C)C)NC(=O)[C@H](C)NC(=O)[C@H](C)NC(=O)CNC(=O)[C@H](CCC(=O)O)NC(=O)[C@H](CC(C)C)NC(=O)[C@H](CC(C)C)NC(=O)C(C)(C)NC(=O)[C@H](CO)NC(=O)[C@H](CC(C)C)NC(=O)[C@H](CC(=O)O)NC(=O)[C@H](CO)NC(=O)[C@@H](NC(=O)[C@H](Cc1ccccc1)NC(=O)[C@@H](NC(=O)CNC(=O)[C@H](CCC(=O)O)NC(=O)C(C)(C)NC(=O)[C@@H](N)Cc1c[nH]cn1)[C@@H](C)O)[C@@H](C)O)C(=O)N[C@@H](CCC(N)=O)C(=O)N[C@@H](Cc1c[nH]c2ccccc12)C(=O)N[C@@H](CC(C)C)C(=O)N[C@H](C(N)=O)C(C)C
Regarding B4, the “pEC50 hGLPR1” value in experiment [1] is 10.2 -log M. Further, the “pEC50 hSCTR” value in experiment [2] was 8.3 -log M.
As for H[Aib]EGTFTSDVSELK([AEEA-AEEA-γGlu-C20 diacid])EEA[Aib]LQRFLEHLVEAA-NH2 [SEQ ID NO: 210], the “PEC50 hGLPR1” value in experiment [3] was 11 -log M. Further, the “pEC50 hSCTR” value in experiment [4] is 6.8 -log M. In experiment [5], the “hGLPR1 EC50 nM (purified peptide)” value is 0.0095 nM and the “hGLPR1 PEC50 (purified peptide)” value was 11 -log M. Besides, in experiment [6], the “hSCTR EC50 nM (purified peptide)” value came to 190 nM and the “hSCTR pEC50 (purified peptide)” value was 6.7 -log M.

B5: SEQ ID NO: 213 (peptide)
peptide: H[Aib]EGTFTSDVSYLLEEA[Aib]LQRFLEK([AEEA-AEEA-γGlu-C20 diacid])LVEAA-NH2
modifications: N-terminus assumed
SMILES: CC(C)C[C@H](NC(=O)[C@H](CC(C)C)NC(=O)[C@H](Cc1ccc(O)cc1)NC(=O)[C@H](CO)NC(=O)[C@@H](NC(=O)[C@H](CC(=O)O)NC(=O)[C@H](CO)NC(=O)[C@@H](NC(=O)[C@H](Cc1ccccc1)NC(=O)[C@@H](NC(=O)CNC(=O)[C@H](CCC(=O)O)NC(=O)C(C)(C)NC(=O)[C@@H](N)Cc1c[nH]cn1)[C@@H](C)O)[C@@H](C)O)C(C)C)C(=O)N[C@@H](CCC(=O)O)C(=O)N[C@@H](CCC(=O)O)C(=O)N[C@@H](C)C(=O)NC(C)(C)C(=O)N[C@@H](CC(C)C)C(=O)N[C@@H](CCC(N)=O)C(=O)N[C@@H](CCCNC(=N)N)C(=O)N[C@@H](Cc1ccccc1)C(=O)N[C@@H](CC(C)C)C(=O)N[C@@H](CCC(=O)O)C(=O)N[C@@H](CCCCNC(=O)COCCOCCNC(=O)COCCOCCNC(=O)CC[C@H](NC(=O)CCCCCCCCCCCCCCCCCCC(=O)O)C(=O)O)C(=O)N[C@@H](CC(C)C)C(=O)N[C@H](C(=O)N[C@@H](CCC(=O)O)C(=O)N[C@@H](C)C(=O)N[C@@H](C)C(N)=O)C(C)C
Consider B5, for which, in experiment [3], the “PEC50 hGLPR1” value is 10.8 -log M. Also, the “pEC50 hSCTR” value in experiment [4] was 6 -log M. In experiment [5], the “hGLPR1 EC50 nM (purified peptide)” value is 0.014 nM and the “hGLPR1 PEC50 (purified peptide)” value is 10.9 -log M. For the same molecule, in experiment [6], the “hSCTR EC50 nM (purified peptide)” value was determined as 890 nM and the “hSCTR pEC50 (purified peptide)” value is 6.1 -log M.

B6: SEQ ID NO: 227 (peptide)
peptide: H[Aib]EGTFTSDLSVLLEGAALQRFIQWLV-NH2
modifications: N-terminus assumed
SMILES: CC[C@H](C)[C@H](NC(=O)[C@H](Cc1ccccc1)NC(=O)[C@H](CCCNC(=N)N)NC(=O)[C@H](CCC(N)=O)NC(=O)[C@H](CC(C)C)NC(=O)[C@H](C)NC(=O)[C@H](C)NC(=O)CNC(=O)[C@H](CCC(=O)O)NC(=O)[C@H](CC(C)C)NC(=O)[C@H](CC(C)C)NC(=O)[C@@H](NC(=O)[C@H](CO)NC(=O)[C@H](CC(C)C)NC(=O)[C@H](CC(=O)O)NC(=O)[C@H](CO)NC(=O)[C@@H](NC(=O)[C@H](Cc1ccccc1)NC(=O)[C@@H](NC(=O)CNC(=O)[C@H](CCC(=O)O)NC(=O)C(C)(C)NC(=O)[C@@H](N)Cc1c[nH]cn1)[C@@H](C)O)[C@@H](C)O)C(C)C)C(=O)N[C@@H](CCC(N)=O)C(=O)N[C@@H](Cc1c[nH]c2ccccc12)C(=O)N[C@@H](CC(C)C)C(=O)N[C@H](C(N)=O)C(C)C
With B6, the “pEC50 hGLPR1” value in experiment [1] is 10.5 -log M. Moreover, in experiment [2], the “pEC50 hSCTR” value is 8.9 -log M.

B7: SEQ ID NO: 209 (peptide)
peptide: H[Aib]EGTFTSDVSYLK([AEEA-AEEA-γGlu-C20 diacid])EEA[Aib]LQRFLEHLVEAA-NH2
modifications: N-terminus assumed
SMILES: CC(C)C[C@H](NC(=O)[C@H](Cc1ccccc1)NC(=O)[C@H](CCCNC(=N)N)NC(=O)[C@H](CCC(N)=O)NC(=O)[C@H](CC(C)C)NC(=O)C(C)(C)NC(=O)[C@H](C)NC(=O)[C@H](CCC(=O)O)NC(=O)[C@H](CCC(=O)O)NC(=O)[C@H](CCCCNC(=O)COCCOCCNC(=O)COCCOCCNC(=O)CC[C@H](NC(=O)CCCCCCCCCCCCCCCCCCC(=O)O)C(=O)O)NC(=O)[C@H](CC(C)C)NC(=O)[C@H](Cc1ccc(O)cc1)NC(=O)[C@H](CO)NC(=O)[C@@H](NC(=O)[C@H](CC(=O)O)NC(=O)[C@H](CO)NC(=O)[C@@H](NC(=O)[C@H](Cc1ccccc1)NC(=O)[C@@H](NC(=O)CNC(=O)[C@H](CCC(=O)O)NC(=O)C(C)(C)NC(=O)[C@@H](N)Cc1c[nH]cn1)[C@@H](C)O)[C@@H](C)O)C(C)C)C(=O)N[C@@H](CCC(=O)O)C(=O)N[C@@H](Cc1c[nH]cn1)C(=O)N[C@@H](CC(C)C)C(=O)N[C@H](C(=O)N[C@@H](CCC(=O)O)C(=O)N[C@@H](C)C(=O)N[C@@H](C)C(N)=O)C(C)C
Turning to B7, in experiment [3], the “PEC50 hGLPR1” value was 10.9 -log M. Also, the “pEC50 hSCTR” value in experiment [4] was 6.4 -log M. Further, in experiment [5], the “hGLPR1 EC50 nM (purified peptide)” value came out at 0.0098 nM and the “hGLPR1 PEC50 (purified peptide)” value is 11 -log M. For the same molecule, in experiment [6], the “hSCTR EC50 nM (purified peptide)” value turned out to be 330 nM and the “hSCTR pEC50 (purified peptide)” value is 6.5 -log M.
